Measurements from paper doi:10.1101/2021.06.07.447357.
Where two headings read alike, the source gives them in different places.

Legend:
[1] = target: 31 kDa recombinant Tic40s form (Brassica napus); assay: dynamic light scattering
[2] = target: 31 kDa recombinant Tic40s form (Brassica napus); assay: dynamic light scattering; remark: listed apart in the source
[3] = target: Recombinant Tic40s with a carboxyl-terminal histidine tag (40 kDa form) (Brassica napus); assay: AUC
[4] = target: Recombinant Tic40s with a carboxyl-terminal histidine tag (40 kDa form) (Brassica napus); assay: AUC; remark: listed apart in the source

stoichiometry N [1] | stoichiometry N [2] | stoichiometry N [3] | stoichiometry N [4] | Substance
2 | 4 |  |  | 31 kDa recombinant Tic40s form (domain or fragment)
 |  | 4 | 3 | Recombinant Tic40s with a carboxyl-terminal histidine tag (40 kDa form) (domain or fragment)
